Data taken from US20240383984A1 (Genentech, published 2024).

Assays:
[1] = target: T1, human FcRH5 protein fragment (soluble) (human, UniProt Q96RD9 16-851); experiment: SPR (BIACORE), IgG captured via anti-human IgG, FcRH5 protein fragment as analyte (100 and 500 nM)
T1 construct: whole entry named; also called soluble human FcRH5; Human FcRH5 (BIACORE analyte)
T1 sequence: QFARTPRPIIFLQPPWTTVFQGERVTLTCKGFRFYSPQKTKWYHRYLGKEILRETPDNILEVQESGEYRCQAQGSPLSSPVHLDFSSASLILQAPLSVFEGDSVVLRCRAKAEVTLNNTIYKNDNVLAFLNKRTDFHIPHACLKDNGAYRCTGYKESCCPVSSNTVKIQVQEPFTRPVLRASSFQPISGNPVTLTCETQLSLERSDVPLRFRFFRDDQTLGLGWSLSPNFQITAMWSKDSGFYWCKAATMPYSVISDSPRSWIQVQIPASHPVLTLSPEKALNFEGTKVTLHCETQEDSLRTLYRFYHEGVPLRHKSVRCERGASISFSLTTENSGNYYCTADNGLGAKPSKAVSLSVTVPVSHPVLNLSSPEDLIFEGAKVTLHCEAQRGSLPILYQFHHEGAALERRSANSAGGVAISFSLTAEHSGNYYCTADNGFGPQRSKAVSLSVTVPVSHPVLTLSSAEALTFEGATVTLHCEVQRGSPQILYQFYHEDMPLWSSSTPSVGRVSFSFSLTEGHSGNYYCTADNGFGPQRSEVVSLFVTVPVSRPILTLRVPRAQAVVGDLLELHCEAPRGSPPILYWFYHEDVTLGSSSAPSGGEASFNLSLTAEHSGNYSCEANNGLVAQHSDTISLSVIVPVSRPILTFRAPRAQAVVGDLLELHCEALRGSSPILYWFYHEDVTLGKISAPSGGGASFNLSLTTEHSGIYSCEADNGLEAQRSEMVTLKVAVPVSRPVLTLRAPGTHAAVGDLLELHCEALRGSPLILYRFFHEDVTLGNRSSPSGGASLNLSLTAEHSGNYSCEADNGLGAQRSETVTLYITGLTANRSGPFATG
Experimental: (§1) Briefly, a human IgG capture surface was generated on a Series S CM5 chip using amine coupling and the human IgG capture kit (GE Life Sciences, Piscataway, NJ). Test antibodies were then captured on flow cells 2, 3, or 4, with flow cell 1 used as a reference. An FcRH5 protein fragment was used as the analyte, with a flow rate of […]. Between injections the capture surface was regenerated by a 30-second injection of 3M magnesium chloride or 10 mM glycine, pH 1.5. Interactions were assessed at 25° C. in 10 mM HEPES pH7.4, 150 mM NaCl, and 0.05% Tween 20 (HBSP). Reference data from the reference flow cell and from injection of buffer alone were subtracted prior to kinetic analysis. Kinetic information was calculated by fitting data to a 1:1 binding model. Reference subtraction and data fitting were performed using BIAevaluation software (GE Life Sciences, Piscataway, NJ).
(§2) For affinity screening of HVR-H2 Trp52 and Met64 variants (Table 7), antibodies were expressed by transient transfection of Expi293 cells and purified using tip columns that were custom packed with affinity resin MabSelect SuRe (Glygen Corp., Columbia, MD & GE Life Sciences, Piscataway, NJ). […] Binding of FcRH5 protein fragment to captured antibodies was monitored at 100 nM and 500 nM. Association and dissociation were monitored at a flow rate of 40 μl/min, for 180 s and 300 s, respectively.

[2] = target: T1, human FcRH5 protein fragment (soluble); experiment: SPR, hIgG capture, screening
Experimental: as §1, §2

B1: hu1G7.v1 heavy chain M64L with light chain of hu1G7.v1.5 (antibody, V domains shown)
VH: EVQLVESGPGLVKPSETLSLTCTVSGFSLTRFGVHWVRQPPGKGLEWLGVIWRGGSTDYNAAFLSRLTISKDNSKNQVSLKLSSVTAADTAVYYCSNHYYGSSDYALDNWGQGTLVTVSS
VL: DIQMTQSPSSLSASVGDRVTITCKASQDVSNIVVWFQQKPGKSPKLLIYSGYYRYTGVPSRFSGSGSGTDFTLTISSLQPEDFATYYCQQQFQPPYTFGQGTKVEIK
notes: human IgG
B1 showed a Kd [1] of 2.3 nM and a Kd [2] of 2.3 nM.

B2: hu1G7.v1 heavy chain M64V with light chain of hu1G7.v1.6 (antibody, V domains shown)
VH: EVQLVESGPGLVKPSETLSLTCTVSGFSLTRFGVHWVRQPPGKGLEWLGVIWRGGSTDYNAAFVSRLTISKDNSKNQVSLKLSSVTAADTAVYYCSNHYYGSSDYALDNWGQGTLVTVSS
VL: DIQMTQSPSSLSASVGDRVTITCKASQDVSNIVVWFQQKPGKAPKLLIYSGYYRYSGVPSRFSGSGSGTDFTLTISSLQPEDFATYYCQQQYQPPYTFGQGTKVEIK
notes: human IgG
B2 was tested, and the Kd [1] was 2.7 nM and the Kd [2] was 2.7 nM.

B3: hu1G7.v1 heavy chain W52F with light chain of hu1G7.v1.7 (antibody, V domains shown)
VH: EVQLVESGPGLVKPSETLSLTCTVSGFSLTRFGVHWVRQPPGKGLEWLGVIFRGGSTDYNAAFMSRLTISKDNSKNQVSLKLSSVTAADTAVYYCSNHYYGSSDYALDNWGQGTLVTVSS
VL: DIQMTQSPSSLSASVGDRVTITCKASQDVRNLVVWFQQKPGKAPKLLIYSGYYRYTGVPSRFSGSGSGTDFTLTISSLQPEDFATYYCQQHYQPPYTFGQGTKVEIK
notes: human IgG
Binder B3 has a Kd [1] of 76.6 nM and a Kd [2] of 77 nM.

B4: hu1G7.v1 heavy chain M64V with light chain of hu1G7.v1.3 (antibody, V domains shown)
VH: EVQLVESGPGLVKPSETLSLTCTVSGFSLTRFGVHWVRQPPGKGLEWLGVIWRGGSTDYNAAFVSRLTISKDNSKNQVSLKLSSVTAADTAVYYCSNHYYGSSDYALDNWGQGTLVTVSS
VL: DIQMTQSPSSLSASVGDRVTITCKASQDVRNIVVWFQQKPGKAPKLLIYSGSYRYSGVPSRFSGSGSGTDFTLTISSLQPEDFATYYCQQQYSPPYTFGQGTKVEIK
notes: human IgG
B4 showed a Kd [1] of 2.5 nM and a Kd [2] of 2.5 nM.

B5: hu1G7.v1 heavy chain W52H with light chain of hu1G7.v1 (antibody, V domains shown)
VH: EVQLVESGPGLVKPSETLSLTCTVSGFSLTRFGVHWVRQPPGKGLEWLGVIHRGGSTDYNAAFMSRLTISKDNSKNQVSLKLSSVTAADTAVYYCSNHYYGSSDYALDNWGQGTLVTVSS
VL: DIQMTQSPSSLSASVGDRVTITCKASQDVSNIVVWFQQKPGKSPKLLIYSASYRYTGVPSRFSGSGSGTDFTLTISSLQPEDFATYYCQQHYSSPYTFGQGTKVEIK
notes: human IgG
B5 gave a Kd [1] of 120 nM and a Kd [2] of 120 nM.

B6: hu1G7.v1 heavy chain W52F with light chain of hu1G7.v1.4 (antibody, V domains shown)
VH: EVQLVESGPGLVKPSETLSLTCTVSGFSLTRFGVHWVRQPPGKGLEWLGVIFRGGSTDYNAAFMSRLTISKDNSKNQVSLKLSSVTAADTAVYYCSNHYYGSSDYALDNWGQGTLVTVSS
VL: DIQMTQSPSSLSASVGDRVTITCKASQDVRNLVVWFQQKPGKAPKLLIYSGSYRYSGVPSRFSGSGSGTDFTLTISSLQPEDFATYYCQQHYSPPYTFGQGTKVEIK
notes: human IgG
In the case of B6, the Kd [1] is reported as 119 nM and the Kd [2] is reported as 120 nM.

B7: hu1G7.v1 heavy chain W52F with light chain of hu1G7.v1.3 (antibody, V domains shown)
VH: EVQLVESGPGLVKPSETLSLTCTVSGFSLTRFGVHWVRQPPGKGLEWLGVIFRGGSTDYNAAFMSRLTISKDNSKNQVSLKLSSVTAADTAVYYCSNHYYGSSDYALDNWGQGTLVTVSS
VL: DIQMTQSPSSLSASVGDRVTITCKASQDVRNIVVWFQQKPGKAPKLLIYSGSYRYSGVPSRFSGSGSGTDFTLTISSLQPEDFATYYCQQQYSPPYTFGQGTKVEIK
notes: human IgG
With B7 the Kd [1] was 177 nM and the Kd [2] was 180 nM.

B8: hu1G7.v1 heavy chain M64V with light chain of hu1G7.v1.7 (antibody, V domains shown)
VH: EVQLVESGPGLVKPSETLSLTCTVSGFSLTRFGVHWVRQPPGKGLEWLGVIWRGGSTDYNAAFVSRLTISKDNSKNQVSLKLSSVTAADTAVYYCSNHYYGSSDYALDNWGQGTLVTVSS
VL: DIQMTQSPSSLSASVGDRVTITCKASQDVRNLVVWFQQKPGKAPKLLIYSGYYRYTGVPSRFSGSGSGTDFTLTISSLQPEDFATYYCQQHYQPPYTFGQGTKVEIK
notes: human IgG
B8 showed a Kd [1] of 2.5 nM and a Kd [2] of 2.5 nM.

B9: hu1G7.v1 heavy chain W52H with light chain of hu1G7.v1.3 (antibody, V domains shown)
VH: EVQLVESGPGLVKPSETLSLTCTVSGFSLTRFGVHWVRQPPGKGLEWLGVIHRGGSTDYNAAFMSRLTISKDNSKNQVSLKLSSVTAADTAVYYCSNHYYGSSDYALDNWGQGTLVTVSS
VL: DIQMTQSPSSLSASVGDRVTITCKASQDVRNIVVWFQQKPGKAPKLLIYSGSYRYSGVPSRFSGSGSGTDFTLTISSLQPEDFATYYCQQQYSPPYTFGQGTKVEIK
notes: human IgG
Work on B9 yielded a Kd [1] of 65.5 nM and a Kd [2] of 66 nM.

B10: hu1G7.v1 heavy chain W52F with light chain of hu1G7.v1 (antibody, V domains shown)
VH: EVQLVESGPGLVKPSETLSLTCTVSGFSLTRFGVHWVRQPPGKGLEWLGVIFRGGSTDYNAAFMSRLTISKDNSKNQVSLKLSSVTAADTAVYYCSNHYYGSSDYALDNWGQGTLVTVSS
VL: DIQMTQSPSSLSASVGDRVTITCKASQDVSNIVVWFQQKPGKSPKLLIYSASYRYTGVPSRFSGSGSGTDFTLTISSLQPEDFATYYCQQHYSSPYTFGQGTKVEIK
notes: human IgG
In the case of B10, the Kd [1] is reported as 254 nM and the Kd [2] is reported as 250 nM.

B11: hu1G7.v1 heavy chain M64L with light chain of hu1G7.v1.6 (antibody, V domains shown)
VH: EVQLVESGPGLVKPSETLSLTCTVSGFSLTRFGVHWVRQPPGKGLEWLGVIWRGGSTDYNAAFLSRLTISKDNSKNQVSLKLSSVTAADTAVYYCSNHYYGSSDYALDNWGQGTLVTVSS
VL: DIQMTQSPSSLSASVGDRVTITCKASQDVSNIVVWFQQKPGKAPKLLIYSGYYRYSGVPSRFSGSGSGTDFTLTISSLQPEDFATYYCQQQYQPPYTFGQGTKVEIK
notes: human IgG
In the case of B11, the Kd [1] is reported as 2.6 nM and the Kd [2] is reported as 2.6 nM.

B12: hu1G7.v1 heavy chain W52F with light chain of hu1G7.v1.6 (antibody, V domains shown)
VH: EVQLVESGPGLVKPSETLSLTCTVSGFSLTRFGVHWVRQPPGKGLEWLGVIFRGGSTDYNAAFMSRLTISKDNSKNQVSLKLSSVTAADTAVYYCSNHYYGSSDYALDNWGQGTLVTVSS
VL: DIQMTQSPSSLSASVGDRVTITCKASQDVSNIVVWFQQKPGKAPKLLIYSGYYRYSGVPSRFSGSGSGTDFTLTISSLQPEDFATYYCQQQYQPPYTFGQGTKVEIK
notes: human IgG
For B12, the Kd [1] was 81.4 nM and the Kd [2] was 81 nM.

B13: hu1G7.v1 heavy chain M64V with light chain of hu1G7.v1.5 (antibody, V domains shown)
VH: EVQLVESGPGLVKPSETLSLTCTVSGFSLTRFGVHWVRQPPGKGLEWLGVIWRGGSTDYNAAFVSRLTISKDNSKNQVSLKLSSVTAADTAVYYCSNHYYGSSDYALDNWGQGTLVTVSS
VL: DIQMTQSPSSLSASVGDRVTITCKASQDVSNIVVWFQQKPGKSPKLLIYSGYYRYTGVPSRFSGSGSGTDFTLTISSLQPEDFATYYCQQQFQPPYTFGQGTKVEIK
notes: human IgG
Work on B13 yielded a Kd [1] of 2.5 nM and a Kd [2] of 2.5 nM.

B14: hu1G7.v1 heavy chain W52H with light chain of hu1G7.v1.4 (antibody, V domains shown)
VH: EVQLVESGPGLVKPSETLSLTCTVSGFSLTRFGVHWVRQPPGKGLEWLGVIHRGGSTDYNAAFMSRLTISKDNSKNQVSLKLSSVTAADTAVYYCSNHYYGSSDYALDNWGQGTLVTVSS
VL: DIQMTQSPSSLSASVGDRVTITCKASQDVRNLVVWFQQKPGKAPKLLIYSGSYRYSGVPSRFSGSGSGTDFTLTISSLQPEDFATYYCQQHYSPPYTFGQGTKVEIK
notes: human IgG
B14 gave a Kd [1] of 60.4 nM and a Kd [2] of 60 nM.

B15: hu1G7.v1 heavy chain W52F with light chain of hu1G7.v1.5 (antibody, V domains shown)
VH: EVQLVESGPGLVKPSETLSLTCTVSGFSLTRFGVHWVRQPPGKGLEWLGVIFRGGSTDYNAAFMSRLTISKDNSKNQVSLKLSSVTAADTAVYYCSNHYYGSSDYALDNWGQGTLVTVSS
VL: DIQMTQSPSSLSASVGDRVTITCKASQDVSNIVVWFQQKPGKSPKLLIYSGYYRYTGVPSRFSGSGSGTDFTLTISSLQPEDFATYYCQQQFQPPYTFGQGTKVEIK
notes: human IgG
Work on B15 yielded a Kd [1] of 47.5 nM and a Kd [2] of 48 nM.
